Consider one protein from FireProtDB (doi:10.1021/bi00015a036).

In general, Tm refers to the temperature at the midpoint of the melting transition.

For the data set the following is noted: Bacillus amyloliquefaciens, Thermal, DSC, reversible: yes (~80%), whole UniProt chain shown.

B1: Ribonuclease wild type, P00648 (protein)
chain: MMKMEGIALKKRLSWISVCLLVLVSAAGMLFSTAAKTETSSHKAHTEAQVINTFDGVADYLQTYHKLPDNYITKSEAQALGWVASKGNLADVAPGKSIGGDIFSNREGKLPGKSGRTWREADINYTSGFRNSDRILYSSDWLIYKTTDHYQTFTKIR
For the protein B1, the Tm runs as follows: (pH 7, PIPES 50 mM) 54 °C; (pH 10, CAPS 50 mM) 48.6 °C; (pH 10.3, CAPS 50 mM) 48.4 °C; (pH 10.5, CAPS 50 mM) 47.4 °C. Besides, the “unfolding enthalpy (calorimetric)” value is, setting by setting: (pH 7, PIPES 50 mM) 132 kcal/mol; (pH 10, CAPS 50 mM) 122 kcal/mol; (pH 10.3, CAPS 50 mM) 121 kcal/mol; (pH 10.5, CAPS 50 mM) 120 kcal/mol.
